From paper PMC10786891, “Massively parallel profiling of RNA-targeting CRISPR-Cas13d” come the findings set out here.

Usually Kd stands for the constant that tells how readily two partners part at equilibrium.

T1: EsCas13d, nuclease-dead (Eubacterium siraeum, UniProt B0MS50, R295A;H300A;R849A;H854A)
T1 sequence: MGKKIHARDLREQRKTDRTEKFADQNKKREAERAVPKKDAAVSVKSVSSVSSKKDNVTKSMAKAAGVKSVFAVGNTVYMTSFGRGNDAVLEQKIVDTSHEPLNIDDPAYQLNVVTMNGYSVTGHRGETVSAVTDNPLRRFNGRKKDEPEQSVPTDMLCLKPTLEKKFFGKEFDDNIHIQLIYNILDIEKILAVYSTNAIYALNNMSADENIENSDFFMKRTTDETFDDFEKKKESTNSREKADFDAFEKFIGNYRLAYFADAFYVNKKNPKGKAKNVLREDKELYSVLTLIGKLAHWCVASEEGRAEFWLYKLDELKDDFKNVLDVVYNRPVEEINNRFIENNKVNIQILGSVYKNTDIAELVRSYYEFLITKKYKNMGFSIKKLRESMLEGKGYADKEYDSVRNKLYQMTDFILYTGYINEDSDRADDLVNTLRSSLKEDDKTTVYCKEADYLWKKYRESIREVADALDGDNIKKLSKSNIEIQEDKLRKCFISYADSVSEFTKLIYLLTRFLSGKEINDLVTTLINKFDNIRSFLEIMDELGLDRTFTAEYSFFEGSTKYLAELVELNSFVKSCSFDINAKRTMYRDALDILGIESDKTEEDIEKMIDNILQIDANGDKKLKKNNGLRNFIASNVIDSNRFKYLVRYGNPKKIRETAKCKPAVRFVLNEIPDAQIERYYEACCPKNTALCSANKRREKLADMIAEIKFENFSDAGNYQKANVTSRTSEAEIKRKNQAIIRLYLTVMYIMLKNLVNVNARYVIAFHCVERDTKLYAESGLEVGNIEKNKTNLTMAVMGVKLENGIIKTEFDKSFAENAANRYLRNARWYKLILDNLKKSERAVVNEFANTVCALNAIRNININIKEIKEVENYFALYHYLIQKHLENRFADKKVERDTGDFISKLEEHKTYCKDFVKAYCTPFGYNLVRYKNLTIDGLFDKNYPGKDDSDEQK

B1: target 2 MT 5'PFS GUA 3'PFS ACA (mixed)
RNA 1: CACCCGUGCAAAAUUGCAGGGGUCUAAAACCUUCUCCAAAUUGUUUCAUCCU
RNA 2: GGGAAUGGAUCCACAUCUACGAAUUCGUAAGGAUGAAACAAUUUGGAGAAGACAAGAUCGGAAGAGCACACGU
B2: target 2 MT 5'PFS UUG 3'PFS UAC (mixed)
RNA 1: CACCCGUGCAAAAUUGCAGGGGUCUAAAACCUUCUCCAAAUUGUUUCAUCCU
RNA 2: GGGAAUGGAUCCACAUCUACGAAUUCUUGAGGAUGAAACAAUUUGGAGAAGUACAGAUCGGAAGAGCACACGU
B3: target 2 MT 5'PFS GGG 3'PFS AUG (mixed)
RNA 1: CACCCGUGCAAAAUUGCAGGGGUCUAAAACCUUCUCCAAAUUGUUUCAUCCU
RNA 2: GGGAAUGGAUCCACAUCUACGAAUUCGGGAGGAUGAAACAAUUUGGAGAAGAUGAGAUCGGAAGAGCACACGU
B4: target 2 MT 5'PFS AAA 3'PFS AUC (mixed)
RNA 1: CACCCGUGCAAAAUUGCAGGGGUCUAAAACCUUCUCCAAAUUGUUUCAUCCU
RNA 2: GGGAAUGGAUCCACAUCUACGAAUUCAAAAGGAUGAAACAAUUUGGAGAAGAUCAGAUCGGAAGAGCACACGU
B5: target 2 MT 5'PFS GAA 3'PFS UAA (mixed)
RNA 1: CACCCGUGCAAAAUUGCAGGGGUCUAAAACCUUCUCCAAAUUGUUUCAUCCU
RNA 2: GGGAAUGGAUCCACAUCUACGAAUUCGAAAGGAUGAAACAAUUUGGAGAAGUAAAGAUCGGAAGAGCACACGU
B6: target 2 MT 5'PFS AAA 3'PFS AUG (mixed)
RNA 1: CACCCGUGCAAAAUUGCAGGGGUCUAAAACCUUCUCCAAAUUGUUUCAUCCU
RNA 2: GGGAAUGGAUCCACAUCUACGAAUUCAAAAGGAUGAAACAAUUUGGAGAAGAUGAGAUCGGAAGAGCACACGU
B7: target 2 MT 5'PFS CAC 3'PFS CAU (mixed)
RNA 1: CACCCGUGCAAAAUUGCAGGGGUCUAAAACCUUCUCCAAAUUGUUUCAUCCU
RNA 2: GGGAAUGGAUCCACAUCUACGAAUUCCACAGGAUGAAACAAUUUGGAGAAGCAUAGAUCGGAAGAGCACACGU
B8: target 2 MT 5'PFS GGG 3'PFS AUC (mixed)
RNA 1: CACCCGUGCAAAAUUGCAGGGGUCUAAAACCUUCUCCAAAUUGUUUCAUCCU
RNA 2: GGGAAUGGAUCCACAUCUACGAAUUCGGGAGGAUGAAACAAUUUGGAGAAGAUCAGAUCGGAAGAGCACACGU
B9: target 2 MT 5'PFS AAA 3'PFS AUU (mixed)
RNA 1: CACCCGUGCAAAAUUGCAGGGGUCUAAAACCUUCUCCAAAUUGUUUCAUCCU
RNA 2: GGGAAUGGAUCCACAUCUACGAAUUCAAAAGGAUGAAACAAUUUGGAGAAGAUUAGAUCGGAAGAGCACACGU
B10: target 2 MT 5'PFS ACA 3'PFS CUU (mixed)
RNA 1: CACCCGUGCAAAAUUGCAGGGGUCUAAAACCUUCUCCAAAUUGUUUCAUCCU
RNA 2: GGGAAUGGAUCCACAUCUACGAAUUCACAAGGAUGAAACAAUUUGGAGAAGCUUAGAUCGGAAGAGCACACGU
B11: target 2 MT 5'PFS CAU 3'PFS AGG (mixed)
RNA 1: CACCCGUGCAAAAUUGCAGGGGUCUAAAACCUUCUCCAAAUUGUUUCAUCCU
RNA 2: GGGAAUGGAUCCACAUCUACGAAUUCCAUAGGAUGAAACAAUUUGGAGAAGAGGAGAUCGGAAGAGCACACGU
B12: target 2 MT 5'PFS CAC 3'PFS CAC (mixed)
RNA 1: CACCCGUGCAAAAUUGCAGGGGUCUAAAACCUUCUCCAAAUUGUUUCAUCCU
RNA 2: GGGAAUGGAUCCACAUCUACGAAUUCCACAGGAUGAAACAAUUUGGAGAAGCACAGAUCGGAAGAGCACACGU
B13: target 2 MT 5'PFS GAA 3'PFS UAU (mixed)
RNA 1: CACCCGUGCAAAAUUGCAGGGGUCUAAAACCUUCUCCAAAUUGUUUCAUCCU
RNA 2: GGGAAUGGAUCCACAUCUACGAAUUCGAAAGGAUGAAACAAUUUGGAGAAGUAUAGAUCGGAAGAGCACACGU
B14: target 2 MT 5'PFS UUG 3'PFS UAU (mixed)
RNA 1: CACCCGUGCAAAAUUGCAGGGGUCUAAAACCUUCUCCAAAUUGUUUCAUCCU
RNA 2: GGGAAUGGAUCCACAUCUACGAAUUCUUGAGGAUGAAACAAUUUGGAGAAGUAUAGAUCGGAAGAGCACACGU
B15: target 2 MT 5'PFS CUG 3'PFS CAA (mixed)
RNA 1: CACCCGUGCAAAAUUGCAGGGGUCUAAAACCUUCUCCAAAUUGUUUCAUCCU
RNA 2: GGGAAUGGAUCCACAUCUACGAAUUCCUGAGGAUGAAACAAUUUGGAGAAGCAAAGAUCGGAAGAGCACACGU
B16: target 2 MT 5'PFS CAC 3'PFS CAG (mixed)
RNA 1: CACCCGUGCAAAAUUGCAGGGGUCUAAAACCUUCUCCAAAUUGUUUCAUCCU
RNA 2: GGGAAUGGAUCCACAUCUACGAAUUCCACAGGAUGAAACAAUUUGGAGAAGCAGAGAUCGGAAGAGCACACGU
B17: target 2 MT 5'PFS GGG 3'PFS AUA (mixed)
RNA 1: CACCCGUGCAAAAUUGCAGGGGUCUAAAACCUUCUCCAAAUUGUUUCAUCCU
RNA 2: GGGAAUGGAUCCACAUCUACGAAUUCGGGAGGAUGAAACAAUUUGGAGAAGAUAAGAUCGGAAGAGCACACGU
B18: target 2 MT 5'PFS CAG 3'PFS UCC (mixed)
RNA 1: CACCCGUGCAAAAUUGCAGGGGUCUAAAACCUUCUCCAAAUUGUUUCAUCCU
RNA 2: GGGAAUGGAUCCACAUCUACGAAUUCCAGAGGAUGAAACAAUUUGGAGAAGUCCAGAUCGGAAGAGCACACGU
B19: target 2 MT 5'PFS GUA 3'PFS ACG (mixed)
RNA 1: CACCCGUGCAAAAUUGCAGGGGUCUAAAACCUUCUCCAAAUUGUUUCAUCCU
RNA 2: GGGAAUGGAUCCACAUCUACGAAUUCGUAAGGAUGAAACAAUUUGGAGAAGACGAGAUCGGAAGAGCACACGU
B20: target 2 MT 5'PFS UUG 3'PFS UAG (mixed)
RNA 1: CACCCGUGCAAAAUUGCAGGGGUCUAAAACCUUCUCCAAAUUGUUUCAUCCU
RNA 2: GGGAAUGGAUCCACAUCUACGAAUUCUUGAGGAUGAAACAAUUUGGAGAAGUAGAGAUCGGAAGAGCACACGU
B21: target 2 MT 5'PFS GGC 3'PFS UAA (mixed)
RNA 1: CACCCGUGCAAAAUUGCAGGGGUCUAAAACCUUCUCCAAAUUGUUUCAUCCU
RNA 2: GGGAAUGGAUCCACAUCUACGAAUUCGGCAGGAUGAAACAAUUUGGAGAAGUAAAGAUCGGAAGAGCACACGU
B22: target 2 MT 5'PFS UUG 3'PFS UAA (mixed)
RNA 1: CACCCGUGCAAAAUUGCAGGGGUCUAAAACCUUCUCCAAAUUGUUUCAUCCU
RNA 2: GGGAAUGGAUCCACAUCUACGAAUUCUUGAGGAUGAAACAAUUUGGAGAAGUAAAGAUCGGAAGAGCACACGU
B23: target 2 MT 5'PFS ACA 3'PFS CUC (mixed)
RNA 1: CACCCGUGCAAAAUUGCAGGGGUCUAAAACCUUCUCCAAAUUGUUUCAUCCU
RNA 2: GGGAAUGGAUCCACAUCUACGAAUUCACAAGGAUGAAACAAUUUGGAGAAGCUCAGAUCGGAAGAGCACACGU
B24: target 2 MT 5'PFS GGG 3'PFS AUU (mixed)
RNA 1: CACCCGUGCAAAAUUGCAGGGGUCUAAAACCUUCUCCAAAUUGUUUCAUCCU
RNA 2: GGGAAUGGAUCCACAUCUACGAAUUCGGGAGGAUGAAACAAUUUGGAGAAGAUUAGAUCGGAAGAGCACACGU
B25: target 2 MT 5'PFS GAA 3'PFS UAC (mixed)
RNA 1: CACCCGUGCAAAAUUGCAGGGGUCUAAAACCUUCUCCAAAUUGUUUCAUCCU
RNA 2: GGGAAUGGAUCCACAUCUACGAAUUCGAAAGGAUGAAACAAUUUGGAGAAGUACAGAUCGGAAGAGCACACGU
B26: target 1 A1G,A9C (mixed)
RNA 1: CACCCGUGCAAAAAUGCAGGGGUCUAAAACUGAGCGGAUAACCUCUCUAUGG
RNA 2: GGGAAUGGAUCCACAUCUACGAAUUCGUACCAUAGAGAGGUUCUCCGCUCGCCGAGAUCGGAAGAGCACACGU
B27: target 1 C7A,A18C (mixed)
RNA 1: CACCCGUGCAAAAAUGCAGGGGUCUAAAACUGAGCGGAUAACCUCUCUAUGG
RNA 2: GGGAAUGGAUCCACAUCUACGAAUUCGUACCAUCGAGAGGUUAUACGCUCACCGAGAUCGGAAGAGCACACGU

The series has as its target T1, EsCas13d, nuclease-dead. The series can be described thus: crRNA (strand 1, pre-loaded); Mg2+; 40 mM Tris-HCl pH 7.5, 150 mM NaCl, 6 mM MgCl2, 1 mM DTT, 0.1% Tween-20, 0.2 mg/ml BSA; 25 C; 10 min per concentration, then washed. The following applies: tags: His6-TwinStrep-SUMO cleaved; N-terminal SNAP kept (SNAP-Surface 488); label: 3' end held by stalled T7 RNA polymerase.
Regarding B1, the affinity, expressed as Kd, was 10.7 ± 1.6 nM.

Take B2: the affinity, expressed as Kd, was 14.3 ± 1.2 nM. In the case of B3 it was 9.2 ± 0.6 nM; in that of B4, 3.6 ± 0.7 nM; in that of B5, 7.3 ± 1.5 nM.

Regarding B6, binding was put at a Kd of 4.4 ± 0.8 nM. As to B7, the affinity, expressed as Kd, was 3.5 ± 0.4 nM. The molecule B8 returned a dissociation constant Kd of 8.5 ± 0.8 nM. For B9, the Kd amounted to 5.2 ± 1 nM. Consider B10, for which binding was characterised by a dissociation constant (Kd) of 12 ± 4 nM. Molecule B11 yielded a Kd of 2.8 ± 0.4 nM. As to B12, the Kd came to 2.9 ± 0.4 nM. For B13, the Kd came out at 7.8 ± 1 nM. In the case of B14, the Kd was determined as 8.6 ± 0.8 nM. With B15, binding was put at a Kd of 2.4 ± 0.4 nM. In the case of B16 it was 1.3 ± 0.23 nM; in that of B17, 7.1 ± 0.5 nM; in that of B18, 29 ± 8 nM. Consider B19, for which the Kd amounted to 10.6 ± 0.9 nM.

In the case of B20, the Kd stood at 10.9 ± 1.2 nM. For the molecule B21, the Kd was determined as 9.4 ± 1.2 nM. Take B22: the Kd turned out to be 12.8 ± 2 nM. The molecule B23 showed a Kd of 6.7 ± 1 nM. For B24, the dissociation constant Kd was 9 ± 0.8 nM.

Consider B25, for which the Kd was 12 ± 4 nM. Next, B26: 13.7 ± 2.3 nM; B27: 70 ± 6 nM.
